Test results from the RNAGym collection of RNA variant scans (doi:10.7554/elife.90254).

B1: LINE1-full (parent)
chain: UACGUAGGUGGUUUUCCCCUGAUAGUGCUAAGGGGGCCUGGAAGUUUGGACUGGGCAGAGCUCAACACAGCGUGGCAAAGUGGCUGUGGCUAGACUGCCUCUCUGGAUUCCUCGUCACUCAGCAGGGCAUCUCUGAGAGAAAUGCC

Variants of: B1
Assay: self-cleavage, relative activity (ratio to wild type); higher = more cleavage; in vitro, sequencing; the parent is a self-cleaving ribozyme

Variant | self-cleavage
UACGUAGGUGGUUUUCCCCUGAUAGUGCUAAGGGGGCCUGGAAGUUUGGACUGGGCAGAGCUCAACACAGCGUGGCAAAGUGGCUGUGGCUAGACCGCCUCUCUGGAUUCCUCGUCACUCAGCAGGGCAUUUCUGAGAGAAAUGCC [U96C C131U] | 0.09
UACGUAGGUGGUUUUCCCCUGAUAGUGCUAAGGGGGCCUGGAAGUUUGGACUGGGCAGAGCUCAACACAGCGUGGCAAAGUGGCUGUGGCUAGACCGCCUCUCUGGAUUCCUCGUCACUCAGCAGGGCAUCUUUGAGAGAAAUGCC [U96C C133U] | 0.08
UACGUAGGUGGUUUUCCCCUGAUAGUGCUAAGGGGGCCUGGAAGUUUGGACUGGGCAGAGCUCAACACAGCGUGGCAAAGUGGCUGUGGCUAGACCACCUCUCUGGAUUCCUCGUCACUCAGCAGGGCAUCUCUGAGAGAAAUGCC [U96C G97A] | 0.02
UACGUAGGUGGUUUUCCCCUGAUAGUGCUAAGGGGGCCUGGAAGUUUGGACUGGGCAGAGCUCAACACAGCGUGGCAAAGUGGCUGUGGCUAGACCGCCUCUCUAGAUUCCUCGUCACUCAGCAGGGCAUCUCUGAGAGAAAUGCC [U96C G105A] | 0.06
UACGUAGGUGGUUUUCCCCUGAUAGUGCUAAGGGGGCCUGGAAGUUUGGACUGGGCAGAGCUCAACACAGCGUGGCAAAGUGGCUGUGGCUAGACCGCCUCUCUGUAUUCCUCGUCACUCAGCAGGGCAUCUCUGAGAGAAAUGCC [U96C G106U] | 0.06
UACGUAGGUGGUUUUCCCCUGAUAGUGCUAAGGGGGCCUGGAAGUUUGGACUGGGCAGAGCUCAACACAGCGUGGCAAAGUGGCUGUGGCUAGACCGCCUCUCUGGAUUCCUCAUCACUCAGCAGGGCAUCUCUGAGAGAAAUGCC [U96C G114A] | 0.11
UACGUAGGUGGUUUUCCCCUGAUAGUGCUAAGGGGGCCUGGAAGUUUGGACUGGGCAGAGCUCAACACAGCGUGGCAAAGUGGCUGUGGCUAGACCGCCUCUCUGGAUUCCUCGUCACUCAACAGGGCAUCUCUGAGAGAAAUGCC [U96C G122A] | 0.07
UACGUAGGUGGUUUUCCCCUGAUAGUGCUAAGGGGGCCUGGAAGUUUGGACUGGGCAGAGCUCAACACAGCGUGGCAAAGUGGCUGUGGCUAGACCGCCUCUCUGGAUUCCUCGUCACUCAGCAGGACAUCUCUGAGAGAAAUGCC [U96C G127A] | 0.08
UACGUAGGUGGUUUUCCCCUGAUAGUGCUAAGGGGGCCUGGAAGUUUGGACUGGGCAGAGCUCAACACAGCGUGGCAAAGUGGCUGUGGCUAGACCGCCUCUCUGGAUUCCUCGUCACUCAGCAGGCCAUCUCUGAGAGAAAUGCC [U96C G127C] | 0.39
UACGUAGGUGGUUUUCCCCUGAUAGUGCUAAGGGGGCCUGGAAGUUUGGACUGGGCAGAGCUCAACACAGCGUGGCAAAGUGGCUGUGGCUAGACCGCCUCUCUGGAUUCCUCGUCACUCAGCAGGUCAUCUCUGAGAGAAAUGCC [U96C G127U] | 0.19
UACGUAGGUGGUUUUCCCCUGAUAGUGCUAAGGGGGCCUGGAAGUUUGGACUGGGCAGAGCUCAACACAGCGUGGCAAAGUGGCUGUGGCUAGACCGCCUCUCUGGAUUCCUCGUCACUCAGCAGGGCAUCUCUGAGAUAAAUGCC [U96C G139U] | 0.14
UACGUAGGUGGUUUUCCCCUGAUAGUGCUAAGGGGGCCUGGAAGUUUGGACUGGGCAGAGCUCAACACAGCGUGGCAAAGUGGCUGUGGCUAGACCGCCUCUCUGGAUUCCUCGUCACUCAGCAGGGCAUCUCUGAGAGAAAUACC [U96C G144A] | 0.25
UACGUAGGUGGUUUUCCCCUGAUAGUGCUAAGGGGGCCUGGAAGUUUGGACUGGGCAGAGCUCAACACAGCGUGGCAAAGUGGCUGUGGCUAGACCGCCUCACUGGAUUCCUCGUCACUCAGCAGGGCAUCUCUGAGAGAAAUGCC [U96C U102A] | 0.11
UACGUAGGUGGUUUUCCCCUGAUAGUGCUAAGGGGGCCUGGAAGUUUGGACUGGGCAGAGCUCAACACAGCGUGGCAAAGUGGCUGUGGCUAGACCGCCUCCCUGGAUUCCUCGUCACUCAGCAGGGCAUCUCUGAGAGAAAUGCC [U96C U102C] | 0.12
UACGUAGGUGGUUUUCCCCUGAUAGUGCUAAGGGGGCCUGGAAGUUUGGACUGGGCAGAGCUCAACACAGCGUGGCAAAGUGGCUGUGGCUAGACCGCCUCUCUGGACUCCUCGUCACUCAGCAGGGCAUCUCUGAGAGAAAUGCC [U96C U108C] | 0.17
UACGUAGGUGGUUUUCCCCUGAUAGUGCUAAGGGGGCCUGGAAGUUUGGACUGGGCAGAGCUCAACACAGCGUGGCAAAGUGGCUGUGGCUAGACCGCCUCUCUGGAGUCCUCGUCACUCAGCAGGGCAUCUCUGAGAGAAAUGCC [U96C U108G] | 0
UACGUAGGUGGUUUUCCCCUGAUAGUGCUAAGGGGGCCUGGAAGUUUGGACUGGGCAGAGCUCAACACAGCGUGGCAAAGUGGCUGUGGCUAGACCGCCUCUCUGGAUACCUCGUCACUCAGCAGGGCAUCUCUGAGAGAAAUGCC [U96C U109A] | 0.15
UACGUAGGUGGUUUUCCCCUGAUAGUGCUAAGGGGGCCUGGAAGUUUGGACUGGGCAGAGCUCAACACAGCGUGGCAAAGUGGCUGUGGCUAGACCGCCUCUCUGGAUCCCUCGUCACUCAGCAGGGCAUCUCUGAGAGAAAUGCC [U96C U109C] | 0.08
UACGUAGGUGGUUUUCCCCUGAUAGUGCUAAGGGGGCCUGGAAGUUUGGACUGGGCAGAGCUCAACACAGCGUGGCAAAGUGGCUGUGGCUAGACCGCCUCUCUGGAUGCCUCGUCACUCAGCAGGGCAUCUCUGAGAGAAAUGCC [U96C U109G] | 0.16
UACGUAGGUGGUUUUCCCCUGAUAGUGCUAAGGGGGCCUGGAAGUUUGGACUGGGCAGAGCUCAACACAGCGUGGCAAAGUGGCUGUGGCUAGACCGCCUCUCUGGAUUCCACGUCACUCAGCAGGGCAUCUCUGAGAGAAAUGCC [U96C U112A] | 0.12

Variant | self-cleavage
UACGUAGGUGGUUUUCCCCUGAUAGUGCUAAGGGGGCCUGGAAGUUUGGACUGGGCAGAGCUCAACACAGCGUGGCAAAGUGGCUGUGGCUAGACCGCCUCUCUGGAUUCCCCGUCACUCAGCAGGGCAUCUCUGAGAGAAAUGCC [U96C U112C] | 0.12
UACGUAGGUGGUUUUCCCCUGAUAGUGCUAAGGGGGCCUGGAAGUUUGGACUGGGCAGAGCUCAACACAGCGUGGCAAAGUGGCUGUGGCUAGACCGCCUCUCUGGAUUCCUCGUCACACAGCAGGGCAUCUCUGAGAGAAAUGCC [U96C U119A] | 0.18
UACGUAGGUGGUUUUCCCCUGAUAGUGCUAAGGGGGCCUGGAAGUUUGGACUGGGCAGAGCUCAACACAGCGUGGCAAAGUGGCUGUGGCUAGACCGCCUCUCUGGAUUCCUCGUCACCCAGCAGGGCAUCUCUGAGAGAAAUGCC [U96C U119C] | 0.22
UACGUAGGUGGUUUUCCCCUGAUAGUGCUAAGGGGGCCUGGAAGUUUGGACUGGGCAGAGCUCAACACAGCGUGGCAAAGUGGCUGUGGCUAGACCGCCUCUCUGGAUUCCUCGUCACUCAGCAGGGCAACUCUGAGAGAAAUGCC [U96C U130A] | 0.12
UACGUAGGUGGUUUUCCCCUGAUAGUGCUAAGGGGGCCUGGAAGUUUGGACUGGGCAGAGCUCAACACAGCGUGGCAAAGUGGCUGUGGCUAGACCGCCUCUCUGGAUUCCUCGUCACUCAGCAGGGCAUCUCCGAGAGAAAUGCC [U96C U134C] | 0.11
UACGUAGGUGGUUUUCCCCUGAUAGUGCUAAGGGGGCCUGGAAGUUUGGACUGGGCAGAGCUCAACACAGCGUGGCAAAGUGGCUGUGGCUAGACCGCCUCUCUGGAUUCCUCGUCACUCAGCAGGGCAUCUCUGAGAGAAAAGCC [U96C U143A] | 0.13
UACGUAGGUGGUUUUCCCCUGAUAGUGCUAAGGGGGCCUGGAAGUUUGGACUGGGCAGAGCUCAACACAGCGUGGCAAAGUGGCUGUGGCUAGACGGCCUCUCUGGAUUCCUCGUCACUCAGCAGGGCAUCUCUGAGAGAAAUGCC [U96G] | 0.1
UACGUAGGUGGUUUUCCCCUGAUAGUGCUAAGGGGGCCUGGAAGUUUGGACUGGGCAGAGCUCAACACAGCGUGGCAAAGUGGCUGUGGCUAGACGGCCUCUCUGGAUUCCUCGUCACUCAGCGGGGCAUCUCUGAGAGAAAUGCC [U96G A124G] | 0.19
UACGUAGGUGGUUUUCCCCUGAUAGUGCUAAGGGGGCCUGGAAGUUUGGACUGGGCAGAGCUCAACACAGCGUGGCAAAGUGGCUGUGGCUAGACGGCCUCUCUGGAUUCCUCGUCACUUAGCAGGGCAUCUCUGAGAGAAAUGCC [U96G C120U] | 0.04
UACGUAGGUGGUUUUCCCCUGAUAGUGCUAAGGGGGCCUGGAAGUUUGGACUGGGCAGAGCUCAACACAGCGUGGCAAAGUGGCUGUGGCUAGACGGCCUCUCUGGAUUCCUCGUCACUCAGCAGAGCAUCUCUGAGAGAAAUGCC [U96G G126A] | 0
UACGUAGGUGGUUUUCCCCUGAUAGUGCUAAGGGGGCCUGGAAGUUUGGACUGGGCAGAGCUCAACACAGCGUGGCAAAGUGGCUGUGGCUAGACGGCCUCCCUGGAUUCCUCGUCACUCAGCAGGGCAUCUCUGAGAGAAAUGCC [U96G U102C] | 0
UACGUAGGUGGUUUUCCCCUGAUAGUGCUAAGGGGGCCUGGAAGUUUGGACUGGGCAGAGCUCAACACAGCGUGGCAAAGUGGCUGUGGCUAGACGGCCUCUCUGGAUCCCUCGUCACUCAGCAGGGCAUCUCUGAGAGAAAUGCC [U96G U109C] | 0.17
UACGUAGGUGGUUUUCCCCUGAUAGUGCUAAGGGGGCCUGGAAGUUUGGACUGGGCAGAGCUCAACACAGCGUGGCAAAGUGGCUGUGGCUAGACGGCCUCUCUGGAUUCCCCGUCACUCAGCAGGGCAUCUCUGAGAGAAAUGCC [U96G U112C] | 0.05
UACGUAGGUGGUUUUCCCCUGAUAGUGCUAAGGGGGCCUGGAAGUUUGGACUGGGCAGAGCUCAACACAGCGUGGCAAAGUGGCUGUGGCUAGACGGCCUCUCUGGAUUCCUCGCCACUCAGCAGGGCAUCUCUGAGAGAAAUGCC [U96G U115C] | 0
UACGUAGGUGGUUUUCCCCUGAUAGUGCUAAGGGGGCCUGGAAGUUUGGACUGGGCAGAGCUCAACACAGCGUGGCAAAGUGGCUGUGGCUAGACGGCCUCUCUGGAUUCCUCGUCACACAGCAGGGCAUCUCUGAGAGAAAUGCC [U96G U119A] | 0.03
UACGUAGGUGGUUUUCCCCUGAUAGUGCUAAGGGGGCCUGGAAGUUUGGACUGGGCAGAGCUCAACACAGCGUGGCAAAGUGGCUGUGGCUAGACGGCCUCUCUGGAUUCCUCGUCACUCAGCAGGGCAUCUCCGAGAGAAAUGCC [U96G U134C] | 0.23
UACGUAGGUGGUUUUCCCCUGAUAGUGCUAAGGGGGCCUGGAAGUUUGGACUGGGCAGAGCUCAACACAGCGUGGCAAAGUGGCUGUGGCUAGACUACCUCUCUGGGUUCCUCGUCACUCAGCAGGGCAUCUCUGAGAGAAAUGCC [G97A A107G] | 0.13
UACGUAGGUGGUUUUCCCCUGAUAGUGCUAAGGGGGCCUGGAAGUUUGGACUGGGCAGAGCUCAACACAGCGUGGCAAAGUGGCUGUGGCUAGACUACCUCUCUGGAUUCCUCGUCUCUCAGCAGGGCAUCUCUGAGAGAAAUGCC [G97A A117U] | 0.17
UACGUAGGUGGUUUUCCCCUGAUAGUGCUAAGGGGGCCUGGAAGUUUGGACUGGGCAGAGCUCAACACAGCGUGGCAAAGUGGCUGUGGCUAGACUACCUCUCUGGAUUCCUCGUCACUCCGCAGGGCAUCUCUGAGAGAAAUGCC [G97A A121C] | 0.12
